Test results as given in the supplement of paper PMC10567573.
± gives the standard deviation.

Assay: protein stability index of a GFP-peptide fusion (GPS, HEK-293T) (PSI 1-6); higher = more stable
[1] = treatment: DMSO, c terminus: a fixed tail appended
[2] = treatment: MLN4924 1 uM, 8 h, c terminus: a fixed tail appended
[3] = treatment: DMSO, c terminus: native
[4] = treatment: MLN4924 1 uM, 8 h, c terminus: native
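Further: 24-mer peptide tiles fused after GFP, lentivirally expressed, FACS-sorted into six equal bins by GFP/DsRed ratio, decoded by Illumina sequencing, PSI is the read-weighted mean bin number.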

LQKKVEQLSRELSTLRNLFKQLPE [CEBPB]
protein stability index [1]: 2.3 ± 0.32
protein stability index [2]: 2.43 ± 0.41

LQNNCTSSITRQKKRLQELALALK [TMEM120A]
protein stability index [1]: 2.79 ± 0.15
protein stability index [2]: 2.83 ± 0.4

LQQIADFMTTNVPNVYPAAPQGGM [ADD1]
protein stability index [1]: 3.3 ± 0.2
protein stability index [2]: 3.29 ± 0.17

LQYSTQVHTEFTLRNFNSAKDMKK [MATN2]
protein stability index [1]: 3.73 ± 0.3
protein stability index [2]: 4.08 ± 0.32

LRGLCANTVLRFLDLKGNNLRAAG [LRRC45]
protein stability index [1]: 2.3 ± 0.24
protein stability index [2]: 2.24 ± 0.16

LRKGFSCVKNELLPSHPLELSEKN [POMP]
protein stability index [1]: 3.61 ± 0.094
protein stability index [2]: 3.75 ± 0.24

LRKREKAEEKERRRKEYDALKAAK [LRRC59]
protein stability index [1]: 4.66 ± 0.4
protein stability index [2]: 4.79 ± 0.31

LRQKGNRNTHKDLLRFAQVFSQMI [FEM1B]
protein stability index [1]: 2.38 ± 0.56
protein stability index [2]: 2.26 ± 0.32

LRREKPSEEMVKMVLSRPCHPDDQ [INTS3]
protein stability index [1]: 4.61 ± 0.12
protein stability index [2]: 4.69 ± 0.15

LRRKSPASGQGPMCNVKAPLGSPS [ADAMTS4]
protein stability index [1]: 3.85 ± 0.2
protein stability index [2]: 3.86 ± 0.46

LRSKLCSLYENDCIFDKFECVWNG [PPP2R2B]
protein stability index [1]: 2.5 ± 0.34
protein stability index [2]: 2.42 ± 0.39

LRTYLARLPWAGQLTKELPLSPAF [PBXIP1]
protein stability index [1]: 2.22 ± 0.64
protein stability index [2]: 2.16 ± 0.22

LSAFYLSYFDMLYPEDSSWAAKAP [SPDEF]
protein stability index [1]: 2.63 ± 0.59
protein stability index [2]: 2.48 ± 0.52

LSICFTCFKAAFLDFKDLLESEDW [TEX19]
protein stability index [1]: 2.62 ± 0.5
protein stability index [2]: 2.69 ± 0.39

LSKSNKPIHTIILNPHVHLVGDDA [CAMK2D]
protein stability index [1]: 3.12 ± 0.3
protein stability index [2]: 2.95 ± 0.48

LSMNWAIVADILLYVVIPTRRSTA [SPNS1]
protein stability index [1]: 2.63 ± 0.62
protein stability index [2]: 3.01 ± 0.77

LSPKKTWEGFIGGFFSTVVFGFIA [CDS1]
protein stability index [1]: 2.28 ± 0.47
protein stability index [2]: 2.15 ± 0.63

LSPSRGVAQCLRDLVAMQWADAAG [ZSWIM9]
protein stability index [1]: 2.7 ± 0.17
protein stability index [2]: 2.77 ± 0.28

LTGFSWRGGSDPETTGIQIWSEVF [ATL3]
protein stability index [1]: 2.16 ± 0.33
protein stability index [2]: 1.59 ± 0.4

LVACCLADIFRIYAPEAPYTSPDK [PDS5B]
protein stability index [1]: 3.3 ± 1.4

LVSGSQSALGPPPAASNSSDLFDL [CLINT1]
protein stability index [1]: 4.43 ± 0.24
protein stability index [2]: 4.34 ± 0.18

LWEKLAKQGELPREVRRAQARLLN [NOP53]
protein stability index [1]: 2.78 ± 0.12
protein stability index [2]: 2.82 ± 0.67

LWTTSRVLKVLSVCSSNKPAIVEA [CTNNB1]
protein stability index [1]: 2.21 ± 0.3
protein stability index [2]: 2.08 ± 0.28

LYFQWYIFYFVIQRKKWVDLAWMI [FADS1]
protein stability index [1]: 2.25 ± 0.7
protein stability index [2]: 3.09 ± 0.93

MAALNSQTAVQFQQYAAQQYPGNY [ACBD3]
protein stability index [1]: 3.09 ± 0.38
protein stability index [2]: 3.16 ± 0.1

MADSGLREPQEDSQKDLENDPSVN [TOR1AIP2]
protein stability index [1]: 5.65 ± 0.19
protein stability index [2]: 5.57 ± 0.21

MALLRKINQVLLFLLIVTLCVILY [GLT8D2]
protein stability index [1]: 2.12 ± 0.27
protein stability index [2]: 2.11 ± 0.18

MAMTAGTTTTFPMSNHTRERVTVA [STK38L]
protein stability index [1]: 3.2 ± 0.36
protein stability index [2]: 3.28 ± 0.36

MASGPGSQEREGLLIVKLEEDCAW [ZNF263]
protein stability index [1]: 2.44 ± 0.36
protein stability index [2]: 2.28 ± 0.47

MASLLEDLSHIEGLSQAPQPLADE [SERTAD1]
protein stability index [1]: 4.82 ± 0.092
protein stability index [2]: 4.72 ± 0.1

MATEGLHENETLASLKSEAESLKG [GNB5]
protein stability index [1]: 5.31 ± 0.23
protein stability index [2]: 5.2 ± 0.15

MCPLYDPNRQLWIELAPLSMPRIN [GAN]
protein stability index [1]: 2.22 ± 0.11
protein stability index [2]: 2.23 ± 0.28

MEEGERSPLLSQETAGQKPLSVHR [TSPAN10]
protein stability index [1]: 5.08 ± 0.11
protein stability index [2]: 5.02 ± 0.18

METFDPTELPELLKLYYRRLFPYS [PRIM1]
protein stability index [1]: 2.43 ± 0.51
protein stability index [2]: 2.38 ± 0.35

MGIVNLNIHMNFTHICRSHNSINQ [SLC2A12]
protein stability index [1]: 2.73 ± 0.52
protein stability index [2]: 2.9 ± 0.46

MGIYQMYLCFLLAVLLQLYVATEA [SLC22A15]
protein stability index [1]: 2.92 ± 0.38
protein stability index [2]: 2.84 ± 0.41

MGLYDGMEHLIYGEPRKLLTQDWV [MAGEA10]
protein stability index [1]: 2.25 ± 0.31
protein stability index [2]: 2.28 ± 0.51

MIMLKDRRMTVVGRLEGLIQPDDL [FAF2]
protein stability index [1]: 2.34 ± 0.25
protein stability index [2]: 2.56 ± 0.29

MKDRTQELRTAKDSDDDDDVAVTV [STX1A]
protein stability index [1]: 5.11 ± 0.33
protein stability index [2]: 5.43 ± 0.32

MLATRNFSGGKSGGNKKSDGVKES [CAMK2A]
protein stability index [1]: 4.51 ± 0.7
protein stability index [2]: 4.54 ± 0.12

MLEASEWATIEGLVELLQPFKQVA [ZBED1]
protein stability index [1]: 2.23 ± 0.76
protein stability index [2]: 2.27 ± 0.23

MLERRYTPYPNLYPDQSPSEDWTM [CLCN6]
protein stability index [1]: 3 ± 0.3
protein stability index [2]: 3.16 ± 0.23

MLPTVITDIKDESCCMTEEIFGPV [ALDH8A1]
protein stability index [1]: 3.83 ± 0.2
protein stability index [2]: 3.81 ± 0.13

MLRSGLSGLGSCLPGSYLSSECHT [KRT36]
protein stability index [1]: 2.42 ± 0.12
protein stability index [2]: 2.37 ± 0.092

MLYEKQKQQNVAHCMLVSNRVSWW [ZBED1]
protein stability index [1]: 2.08 ± 0.17
protein stability index [2]: 2.31 ± 0.2

MNPYKIDIGAVYSHRPNQHNTVKL [PRIM1]
protein stability index [1]: 2.79 ± 0.06
protein stability index [2]: 2.43 ± 0.37

MPAATVDHSQRICEVWACNLDEEM [CNOT7]
protein stability index [1]: 4.65 ± 0.41
protein stability index [2]: 4.77 ± 0.28

MPEEVHHGEEEVETFAFQAEIAQL [HSP90AB1]
protein stability index [1]: 5.24 ± 0.28
protein stability index [2]: 5.16 ± 0.14

MQGNQILVFPSSSSSSSSQAPGQP [ZBTB22]
protein stability index [1]: 4.28 ± 0.24
protein stability index [2]: 4.22 ± 0.22

MQIAVPCAFLLLRLLVGLALATLR [TMEM175]
protein stability index [1]: 2.46 ± 0.28
protein stability index [2]: 2.26 ± 0.17

MQRGARLPAEVAGLSQVLLRGGGQ [POMT2]
protein stability index [1]: 3.6 ± 0.27
protein stability index [2]: 3.64 ± 0.21

MRHEELLTKTFQGPAVVCGTPTSH [LYSMD4]
protein stability index [1]: 3.82 ± 0.19
protein stability index [2]: 3.82 ± 0.13

MRLNSTGEVPVLIHGENIICEATQ [GDAP1]
protein stability index [1]: 3.69 ± 0.17
protein stability index [2]: 3.8 ± 0.45

MRSNYPPPLSSAALRGAGPTRRN [C6orf223]
protein stability index [3]: 3.1 ± 1.3
protein stability index [4]: 3.18 ± 0.51

MTLLPGDNSDYDYSALSCTSDASF [KCNG1]
protein stability index [1]: 3.79 ± 0.27
protein stability index [2]: 3.87 ± 0.24

MTVMSGENVDEASAAPGHPQDGSY [KCNA1]
protein stability index [1]: 5.37 ± 0.21
protein stability index [2]: 5.12 ± 0.14

MTVVRMDASVQPGPFRTLLQFLYT [RHOBTB1]
protein stability index [1]: 2.41 ± 0.4
protein stability index [2]: 2.25 ± 0.4

MVDIIFHYPFLGAMGDHSKKKPGT [ISL2]
protein stability index [1]: 2.34 ± 0.28
protein stability index [2]: 2.38 ± 0.61

MVKEPVEDTDPSTLSFNMSDKYPI [EDARADD]
protein stability index [1]: 4.37 ± 0.43
protein stability index [2]: 4.5 ± 0.29

MVRKIGCYAAMKKKIYAMGGGSYG [GAN]
protein stability index [1]: 2.28 ± 0.17
protein stability index [2]: 2.45 ± 0.38

NAIPGRTDIELEIYGMEGIPEKDM [ZNF207]
protein stability index [1]: 4.23 ± 0.35
protein stability index [2]: 4.37 ± 0.29

NAVKYVSNIKFCSFHPLQYIGFYG [PDS5B]
protein stability index [1]: 2.89 ± 0.25
protein stability index [2]: 2.35 ± 0.54

NDIFQAANPYWTSRGSSVSMSGGR [TRIM63]
protein stability index [1]: 3.76 ± 0.34
protein stability index [2]: 3.63 ± 0.062

NESALVKEKELSIELANIRDEVAF [MTUS2]
protein stability index [1]: 4.42 ± 0.28
protein stability index [2]: 4.33 ± 0.46

NEVRRGSPVLLGWVEQAYADKCVC [TIAF1]
protein stability index [1]: 2.64 ± 0.087
protein stability index [2]: 2.88 ± 0.27

NFFTTLRVVHHKFHSQRHGSKKD [TMEM120A]
protein stability index [3]: 3.32 ± 0.33
protein stability index [4]: 3.3 ± 0.45

NIHENKRTGSLFKIWLVVPSLLEL [KLHDC10]
protein stability index [1]: 3.16 ± 0.49
protein stability index [2]: 3.15 ± 0.42

NIHMNFTHICRSHNSINQSLDESV [SLC2A12]
protein stability index [1]: 2.56 ± 0.25
protein stability index [2]: 2.54 ± 0.23

NILFDFVKKKKEEGVIDSSDKEIV [EIF5]
protein stability index [1]: 3.65 ± 0.12
protein stability index [2]: 3.74 ± 0.27

NISCFFRLVDRDSVWGYDLGLRSL [MYORG]
protein stability index [1]: 3.01 ± 0.41
protein stability index [2]: 2.95 ± 0.7

NKALSIILHLICLLEKVPCTLEQD [FEM1C]
protein stability index [1]: 2.87 ± 0.25
protein stability index [2]: 3.13 ± 0.71

NKKGFWSYGPVILVVLVVAVVASS [TOR1AIP2]
protein stability index [1]: 1.78 ± 0.42
protein stability index [2]: 1.83 ± 0.042

NKQKCVERNEVRNVFKELQIMQGL [STK32A]
protein stability index [1]: 2.94 ± 0.4
protein stability index [2]: 2.93 ± 0.24

NLLLQPTTNPHTSASHRPCVNGDV [SMG5]
protein stability index [1]: 3.48 ± 0.23
protein stability index [2]: 3.54 ± 0.43

NNPFAKGFRGSDDMELHRMSRMQS [TBX5]
protein stability index [1]: 4.15 ± 0.33
protein stability index [2]: 4.06 ± 0.22

NPGTDAVAQTSLEEFNVLEMEVMR [FATE1]
protein stability index [1]: 4.71 ± 0.18
protein stability index [2]: 4.68 ± 0.13

NQAGFTLHSAIYAARPDVKCVVHI [ADD1]
protein stability index [1]: 3.1 ± 0.42
protein stability index [2]: 3.15 ± 0.62

NQEITKAFHVRRTNRVKECLAKGT [RHOBTB2]
protein stability index [1]: 3.41 ± 0.51
protein stability index [2]: 3.64 ± 0.7

NSFSLNSSISSSARRTTRSEPIRR [MAP2]
protein stability index [1]: 4.46 ± 0.27
protein stability index [2]: 4.53 ± 0.13

NSIAHYRQVNIRTANCTTANQNCV [KCNA1]
protein stability index [1]: 3.17 ± 0.17
protein stability index [2]: 3.19 ± 0.27

NSSQLLLRRHAGLLDGLARRVGIL [SCARA5]
protein stability index [1]: 2.72 ± 0.027
protein stability index [2]: 2.69 ± 0.28

NSVCSKFRKEIKSKSADNQEYFER [RHOBTB1]
protein stability index [1]: 4.26 ± 0.19
protein stability index [2]: 4.45 ± 0.32

NTNLHTHQRTHTGEKPFTCHECGK [ZNF75A]
protein stability index [1]: 4.51 ± 0.14
protein stability index [2]: 4.54 ± 0.18

NTTLTQYQLLATHVPTVWAIDQYR [RHOBTB1]
protein stability index [1]: 2.75 ± 0.56
protein stability index [2]: 2.41 ± 0.43

NVEDHINPKLPNISLDVLQPSFPE [POMT2]
protein stability index [1]: 4.58 ± 0.22
protein stability index [2]: 4.7 ± 0.15

NVLSVNLPDNFTLKEDGMETVPWF [TPH1]
protein stability index [1]: 2.75 ± 0.21
protein stability index [2]: 2.92 ± 0.17

NYMVQTEDQYIFIHDALLEAVTCG [PTPRD]
protein stability index [1]: 2.25 ± 0.35
protein stability index [2]: 2.13 ± 0.37

PAITATLLDFMCRIIPNFYPPLEG [INTS3]
protein stability index [1]: 3.07 ± 0.13
protein stability index [2]: 3.1 ± 0.32

PAPPPPAGGATAWGDLLGEDSLAA [SNAP91]
protein stability index [1]: 5.13 ± 0.22
protein stability index [2]: 5.11 ± 0.13
